B1: 6xHis-hRad51 (natural protein, human, UniProt Q06609 1-339, looked up)
chain: MAMQMQLEANADTSVEEESFGPQPISRLEQCGINANDVKKLEEAGFHTVEAVAYAPKKELINIKGISEAKADKILAEAAKLVPMGFTTATEFHQRRSEIIQITTGSKELDKLLQGGIETGSITEMFGEFRTGKTQICHTLAVTCQLPIDRGGGEGKAMYIDTEGTFRPERLLAVAERYGLSGSDVLDNVAYARAFNTDHQTQLLYQASAMMVESRYALLIVDSATALYRTDYSGRGELSARQMHLARFLRMLLRLADEFGVAVVITNQVVAQVDGAAMFAADPKKPIGGNIIAHASTTRLYLRKGRGETRICKIYDSPCLPEAEAMFAINADGVGDAKD
notes: human Rad51 recombinase; also called recombinant hRad51; source: E. coli BL21 (DE3), purified (Ni-NTA)

Columns and labels:
Conditions in all cases: both partners purified
GST-RNF20 = biological target: T1, GST-RNF20 (human, UniProt Q5VTR2 1-975); assay: pull-down; GST-tagged Bre1 (WT, truncated or mutant) or GST-RNF20 on glutathione agarose beads, incubated with 6xHis-tagged Rad51, hRad51 or FBH1 at 4 °C for 4 h; wash 20 mM Tris-HCl pH 7.4, 200 mM NaCl; Western blot or Coomassie
T1 construct: RNF20, human homolog of Bre1; an asterisk marks the full-length band on the gel; also called full-length GST-RNF20

GST-Srs2 = biological target: T2, GST-Srs2 (yeast (Saccharomyces cerevisiae), UniProt P12954 1-1174); assay: pull-down; GST-Srs2 on beads with 6xHis-tagged WT, truncated or mutated Bre1; detected by Western blot with an anti-His antibody; whether ssDNA was included is not told
T2 construct: Srs2 helicase, yeast; also called recombinant GST-Srs2
T2 sequence (looked up): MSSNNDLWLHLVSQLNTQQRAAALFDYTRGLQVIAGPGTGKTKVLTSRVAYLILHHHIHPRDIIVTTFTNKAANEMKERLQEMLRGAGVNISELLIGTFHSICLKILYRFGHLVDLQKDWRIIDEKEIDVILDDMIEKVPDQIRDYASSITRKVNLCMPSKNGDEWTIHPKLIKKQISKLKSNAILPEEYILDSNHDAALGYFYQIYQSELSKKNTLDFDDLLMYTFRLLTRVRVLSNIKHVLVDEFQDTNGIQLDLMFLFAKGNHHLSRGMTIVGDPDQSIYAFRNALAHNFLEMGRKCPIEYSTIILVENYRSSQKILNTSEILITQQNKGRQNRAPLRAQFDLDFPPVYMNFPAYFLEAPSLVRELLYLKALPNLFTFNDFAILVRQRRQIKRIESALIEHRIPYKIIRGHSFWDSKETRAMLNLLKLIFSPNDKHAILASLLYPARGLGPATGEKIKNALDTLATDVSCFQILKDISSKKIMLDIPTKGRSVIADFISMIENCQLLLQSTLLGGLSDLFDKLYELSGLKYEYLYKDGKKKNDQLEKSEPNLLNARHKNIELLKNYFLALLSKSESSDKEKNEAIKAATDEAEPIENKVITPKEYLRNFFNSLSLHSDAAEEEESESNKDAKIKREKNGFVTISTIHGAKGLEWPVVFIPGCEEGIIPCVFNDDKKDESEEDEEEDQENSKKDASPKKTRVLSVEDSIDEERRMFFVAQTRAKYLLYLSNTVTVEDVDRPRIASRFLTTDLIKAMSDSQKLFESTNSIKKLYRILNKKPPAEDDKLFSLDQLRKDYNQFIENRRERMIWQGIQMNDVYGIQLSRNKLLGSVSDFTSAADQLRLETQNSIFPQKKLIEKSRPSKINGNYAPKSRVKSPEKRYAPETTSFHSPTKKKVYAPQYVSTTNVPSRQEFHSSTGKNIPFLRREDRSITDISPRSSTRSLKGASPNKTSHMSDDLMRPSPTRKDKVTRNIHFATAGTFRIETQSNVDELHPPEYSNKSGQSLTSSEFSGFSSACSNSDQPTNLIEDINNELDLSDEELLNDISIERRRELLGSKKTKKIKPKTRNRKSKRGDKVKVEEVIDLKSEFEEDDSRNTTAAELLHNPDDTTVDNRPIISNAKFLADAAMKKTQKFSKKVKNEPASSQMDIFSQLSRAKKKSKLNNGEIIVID

GST-Bre1 = biological target: T3, GST-Bre1 (yeast (Saccharomyces cerevisiae), UniProt Q07457 1-700); assay: pull-down; GST-tagged Bre1 (WT, truncated or mutant) or GST-RNF20 on glutathione agarose beads, incubated with 6xHis-tagged Rad51, hRad51 or FBH1 at 4 °C for 4 h; wash 20 mM Tris-HCl pH 7.4, 200 mM NaCl; Western blot or Coomassie
T3 construct: Bre1, yeast ubiquitin E3 ligase; RBD 1-210, linker 211-614, RING 615-700; also called GST-tagged WT Bre1; recombinant GST-Bre1
T3 sequence (looked up): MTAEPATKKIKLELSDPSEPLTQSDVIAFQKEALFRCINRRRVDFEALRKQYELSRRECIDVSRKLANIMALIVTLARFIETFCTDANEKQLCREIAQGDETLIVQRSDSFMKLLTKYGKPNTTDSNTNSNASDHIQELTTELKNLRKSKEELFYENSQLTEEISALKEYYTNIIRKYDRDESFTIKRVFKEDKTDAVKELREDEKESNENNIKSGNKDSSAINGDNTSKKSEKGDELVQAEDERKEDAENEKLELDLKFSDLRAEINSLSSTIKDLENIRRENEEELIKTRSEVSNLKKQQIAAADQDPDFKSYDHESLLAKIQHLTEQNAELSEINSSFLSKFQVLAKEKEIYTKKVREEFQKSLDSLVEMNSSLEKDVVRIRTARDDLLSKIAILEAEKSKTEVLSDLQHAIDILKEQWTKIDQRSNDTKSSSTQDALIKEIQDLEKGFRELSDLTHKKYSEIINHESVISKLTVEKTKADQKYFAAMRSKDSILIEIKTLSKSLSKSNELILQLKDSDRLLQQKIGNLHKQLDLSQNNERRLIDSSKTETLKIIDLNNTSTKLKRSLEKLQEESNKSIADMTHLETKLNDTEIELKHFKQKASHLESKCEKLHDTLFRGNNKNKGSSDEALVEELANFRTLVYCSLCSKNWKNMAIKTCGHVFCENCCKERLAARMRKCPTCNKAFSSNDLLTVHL

[1] = biological target: T4, GST-tagged truncated Bre1 1-504 aa (yeast (Saccharomyces cerevisiae), UniProt Q07457 1-504); assay: as above
T4 construct: source: recombinant, GST-tagged
T4 sequence (looked up): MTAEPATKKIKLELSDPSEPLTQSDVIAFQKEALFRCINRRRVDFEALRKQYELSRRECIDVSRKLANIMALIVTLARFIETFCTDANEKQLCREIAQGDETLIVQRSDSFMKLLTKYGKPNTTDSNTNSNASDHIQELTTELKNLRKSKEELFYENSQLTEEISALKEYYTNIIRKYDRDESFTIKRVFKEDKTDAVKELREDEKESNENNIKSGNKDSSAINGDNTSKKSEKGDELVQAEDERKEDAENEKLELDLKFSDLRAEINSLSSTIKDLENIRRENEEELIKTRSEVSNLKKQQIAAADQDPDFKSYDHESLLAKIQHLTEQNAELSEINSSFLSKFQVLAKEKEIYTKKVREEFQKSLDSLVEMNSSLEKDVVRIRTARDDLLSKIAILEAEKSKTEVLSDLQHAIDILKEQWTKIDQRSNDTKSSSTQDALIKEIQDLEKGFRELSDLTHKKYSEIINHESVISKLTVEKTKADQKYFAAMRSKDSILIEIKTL

6xHis-Bre1 = biological target: T5, 6xHis-Bre1 (yeast (Saccharomyces cerevisiae), UniProt Q07457 1-700); assay: pull-down; ssDNA pull-down: 5'-biotinylated 90-nt ssDNA on streptavidin magnetic beads, yeast or human Rad51 bound first, then Bre1 or RNF20N added; 37 °C; 42 mM Tris-HCl pH 7.5, 15 mM KCl, 90 mM NaCl, 2 mM ATP; Bre1 or RNF20N alone did not bind the ssDNA
T5 construct: Bre1, yeast ubiquitin E3 ligase; also called WT Bre1; wild-type Bre1; source: E. coli BL21 (DE3), purified (Ni-NTA)
T5 sequence (looked up): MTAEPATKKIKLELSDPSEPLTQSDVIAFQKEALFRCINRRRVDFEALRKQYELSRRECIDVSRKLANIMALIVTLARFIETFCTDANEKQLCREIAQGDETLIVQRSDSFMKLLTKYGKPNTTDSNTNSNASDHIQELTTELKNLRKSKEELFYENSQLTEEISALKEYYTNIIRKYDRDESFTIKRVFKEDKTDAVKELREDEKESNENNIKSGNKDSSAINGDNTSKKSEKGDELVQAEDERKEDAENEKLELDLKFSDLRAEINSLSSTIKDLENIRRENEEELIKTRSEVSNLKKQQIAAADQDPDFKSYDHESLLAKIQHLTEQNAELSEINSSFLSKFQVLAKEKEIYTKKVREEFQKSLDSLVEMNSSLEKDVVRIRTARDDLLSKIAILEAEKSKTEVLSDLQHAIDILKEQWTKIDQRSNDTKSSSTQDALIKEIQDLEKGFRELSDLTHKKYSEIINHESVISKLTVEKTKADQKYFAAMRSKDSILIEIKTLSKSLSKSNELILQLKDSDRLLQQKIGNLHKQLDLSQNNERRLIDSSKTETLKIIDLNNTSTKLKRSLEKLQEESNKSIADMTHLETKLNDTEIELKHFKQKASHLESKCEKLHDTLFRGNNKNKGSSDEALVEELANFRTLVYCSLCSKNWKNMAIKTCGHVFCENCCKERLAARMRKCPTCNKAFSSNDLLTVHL

6xHis-hRad51 = biological target: B1; assay: as above

B1: binds (GST-RNF20).

B2: 6xHis-tagged Bre1 truncation 1-501 aa (domain or fragment, yeast (Saccharomyces cerevisiae), UniProt Q07457 1-501, looked up)
chain: MTAEPATKKIKLELSDPSEPLTQSDVIAFQKEALFRCINRRRVDFEALRKQYELSRRECIDVSRKLANIMALIVTLARFIETFCTDANEKQLCREIAQGDETLIVQRSDSFMKLLTKYGKPNTTDSNTNSNASDHIQELTTELKNLRKSKEELFYENSQLTEEISALKEYYTNIIRKYDRDESFTIKRVFKEDKTDAVKELREDEKESNENNIKSGNKDSSAINGDNTSKKSEKGDELVQAEDERKEDAENEKLELDLKFSDLRAEINSLSSTIKDLENIRRENEEELIKTRSEVSNLKKQQIAAADQDPDFKSYDHESLLAKIQHLTEQNAELSEINSSFLSKFQVLAKEKEIYTKKVREEFQKSLDSLVEMNSSLEKDVVRIRTARDDLLSKIAILEAEKSKTEVLSDLQHAIDILKEQWTKIDQRSNDTKSSSTQDALIKEIQDLEKGFRELSDLTHKKYSEIINHESVISKLTVEKTKADQKYFAAMRSKDSILIEI
notes: source: recombinant, 6xHis-tagged
B2: binds (GST-Srs2).

B3: 6xHis-Rad51 (natural protein, yeast (Saccharomyces cerevisiae), UniProt P25454 1-400, looked up)
chain: MSQVQEQHISESQLQYGNGSLMSTVPADLSQSVVDGNGNGSSEDIEATNGSGDGGGLQEQAEAQGEMEDEAYDEAALGSFVPIEKLQVNGITMADVKKLRESGLHTAEAVAYAPRKDLLEIKGISEAKADKLLNEAARLVPMGFVTAADFHMRRSELICLTTGSKNLDTLLGGGVETGSITELFGEFRTGKSQLCHTLAVTCQIPLDIGGGEGKCLYIDTEGTFRPVRLVSIAQRFGLDPDDALNNVAYARAYNADHQLRLLDAAAQMMSESRFSLIVVDSVMALYRTDFSGRGELSARQMHLAKFMRALQRLADQFGVAVVVTNQVVAQVDGGMAFNPDPKKPIGGNIMAHSSTTRLGFKKGKGCQRLCKVVDSPCLPEAECVFAIYEDGVGDPREEDE
notes: Rad51 recombinase, yeast; also called 6xHis-tagged Rad51; yeast Rad51; source: E. coli BL21 (DE3), purified (Ni-NTA)
B3: binds (GST-Bre1); binds [1]; binds (6xHis-Bre1).

B4: GST-RNF20N (domain or fragment, human, UniProt Q5VTR2 1-300, looked up)
chain: MSGIGNKRAAGEPGTSMPPEKKAAVEDSGTTVETIKLGGVSSTEELDIRTLQTKNRKLAEMLDQRQAIEDELREHIEKLERRQATDDASLLIVNRYWSQFDENIRIILKRYDLEQGLGDLLTERKALVVPEPEPDSDSNQERKDDRERGEGQEPAFSFLATLASSSSEEMESQLQERVESSRRAVSQIVTVYDKLQEKVELLSRKLNSGDNLIVEEAVQELNSFLAQENMRLQELTDLLQEKHRTMSQEFSKLQSKVETAESRVSVLESMIDDLQWDIDKIRKREQRLNRHLAEVLERVN
notes: also called N-terminal fragment RNF20N (1-300 aa)
B4: binds (6xHis-hRad51).
